Laboratory results as given in patent US8389468B2, “Approach to the treatment of compartment syndrome” (Lantmannen AS-Faktor AB, priority 2006, dated 2013).

System: HSV-1 infected rats
Assay: Intracranial pressure (ICP) and neurological symptoms in HSV-1 infected rats, fibre optic pressure sensor
Assay type: in vivo, rat
Conditions: HSV-1 infected rat treated twice daily, day 5
Procedure: Adult rats were infected by having a solution of the Herpes Simplex virus type 1 (HSV-1; strain 2762, batch 041028; 1.7×10^7 PFU/mL; 25 pL) instilled in their right nostril. One group of animals (n=6) received 10 min after the infection 25 pL (10 pg) of AF-16 in their right nostril, and had thereafter the same dose of AF-16 instilled twice daily, every morning at 8 AM and every night at 6 PM, until the experiment was terminated on day 6. Additional HSV-1 infected rats (n=6) received in the nose at the same time intervals 25 pL of the vehicle, phosphate buffered saline (PBS). On day 6, the animals were anaesthetized, a surgical incision made through the skin on the head, and the skull bone freed from periostium and connective tissue. A hole with a diameter of about 1 mm was drilled through the right parietal bone and a miniature pressure sensor inserted 3-5 mm into the brain or into the lateral ventricle. A fibre optic pressure measure system (Samba System 3200 & Samba Preclin 420 sensor; Samba Sensors AB, V Frolunda, Sweden) with a very small diameter, ve. 0.4 mm, was used. […] HSV-1 infected rats treated with just the vehicle were measured to have as high pressures as up to 30-45 mm Hg (FIG. 2a), considerably affect the animals as reflected by symptoms of neurological dysfunction of increasing severity. In contrast, HSV-1 infected rats treated from the time of infection with AF-16 twice daily had almost normal ICP, 8-14 mm Hg (FIG. 2 b).
Additional HSV-1 infected animals with distinctly overt symptoms were as well treated with 10 or 25 pg AF-16 intranasally, starting on day 5, 6 or 7, i.e. after having had the vehicle during the previous days. […] Thus, non of the acutely AF-16 treated rats had any persistent signs of deleterious ICP and thus no CS developed. […] That is seen in the mentioned figure (FIG. 5 a) as there is no red staining of the right half on the figure. However, treatment with 10 or 25 pg AF-16 intranasally turned the picture in HSV-1 infected rats as in the normal, non-infected ones. […] Thereby the outflow of CSF was restored and the ICP turned normal.

B1: AF: antisecretory factor; antisecretory proteins and peptides; in FIG. 2b probably AF-16 (protein, UniProt P55036 1-377, looked up)
26S proteasome non-ATPase …: MVLESTMVCVDNSEYMRNGDFLPTRLQAQQDAVNIVCHSKTRSNPENNVGLITLANDCEVLTTLTPDTGRILSKLHTVQPKGKITFCTGIRVAHLALKHRQGKNHKMRIIAFVGSPVEDNEKDLVKLAKRLKKEKVNVDIINFGEEEVNTEKLTAFVNTLNGKDGTGSHLVTVPPGPSLADALISSPILAGEGGAMLGLGASDFEFGVDPSADPELALALRVSMEEQRQRQEEEARRAAAASAAEAGIATTGTEDSDDALLKMTISQQEFGRTGLPDLSSMTEEEQIAYAMQMSLQGAEFGQAESADIDASSAMDTSEPAKEEDDYDVMQDPEFLQSVLENLPGVDPNNEAIRNAMGSLASQATKDGKKDKKEEDKK
- ICP (FIG. 2b): almost turned the ICP back to normal levels
